Drawing on the supplement of paper PMC10126150, this text covers switch fluorescence ratio for 78 sequences.

± gives the standard deviation of the averaged measurements.
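Note: ATP exposure 15 min at 22 °C before imaging.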

The data set deals with ATP. As to the kind of experiment: switch fluorescence ratio, 500 uM ATP over buffer (Cy3 cluster intensity, sum of 5 cycles each) (fold (ratio)); higher = stronger signal-on switching upon ATP binding; sequences stand for … in TCGTCGGCAGCGTCAGATGTGTATAAGAGACAGTTTTTTTTTTTTTTTTTTTTTTTTT…TC. To be noted: aptamer strand: ATP DNA aptamer (quencher-CACCTGGGGGAGTATTGCGGAGGAAGG + anchor), 100 nM annealed; ATP concentration: 500 uM. The essentials: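 Cy3-labelled switching-strand clusters on a modified Illumina MiSeq flow-cell were annealed to 100 nM quencher-labelled ATP aptamer and imaged first in selection buffer, then after 15 min with 500 uM ATP at 22 °C. NaOH stripping and re-annealing separated each of five buffer/ATP cycles, and clusters outside 100-1000 RFU were excluded. The fluorescence ratio sums target-cycle Cy3 intensity over buffer-cycle Cy3 intensity per cluster and averages it per switch-domain sequence.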
Take AAGGACGCCT: the switch fluorescence ratio was 1.03 ± 0.0041.
With GTTTCAATGC the figure was 1.31 ± 0.1; with TTTTTTTACG, 1.06 ± 0.041; with CTATTCCACC, 1.02 ± 0.023.
Take GATATCTCCT: the switch fluorescence ratio came to 1.09 ± 0.011.
Next, TCTTTTTGGC: 1.01 ± 0.034; CAGTTTCAGG: 0.966 ± 0.043; AGGCCGAGTC: 1.02 ± 0.054.
CAGGTTGTGG: the switch fluorescence ratio was determined as 0.992 ± 0.024.
Next, TGCAGGCTGC: 0.989 ± 0.048; AAAATACGGG: 1.21 ± 0.21.
Next, ACTTCTGGTG: 1.23 ± 0.031; ATGGTCAGGC: 0.973 ± 0.019; TTGGTTTTCT: 0.994 ± 0.045.
For TCGGGGGCCT, the switch fluorescence ratio was determined as 0.959 ± 0.022.
Next, GCCATGTGAA: 1.004 ± 0.0084; CGGGCTTGTG: 1 ± 0.011; GAAAAATTTC: 0.99 ± 0.028.
Take TTTGAGGTAG: the switch fluorescence ratio is 0.98 ± 0.019.
For the sequence TAGTTGGGGA, the switch fluorescence ratio was 1.03 ± 0.033.
With TAGGGGGGTA the figure was 0.982 ± 0.035; with GAATATTTTG, 0.994 ± 0.015.
With GCAGTTGTTC, the switch fluorescence ratio was found to be 0.981 ± 0.037.
Next, TAAAGCATGG: 0.98 ± 0.019.
In the case of GTAGGGTAAG, the switch fluorescence ratio was 0.988 ± 0.039.
Turning to GCAAAAGTTT, the switch fluorescence ratio was 0.99 ± 0.012.
With TTTGTATAGG the figure was 0.98 ± 0.035.
With TTAATAACGG the figure was 1.04 ± 0.06.
With TTTTTGGAGC the figure was 1.01 ± 0.016; with ATTGTGGGCC, 0.975 ± 0.023; with CGGATGTAGC, 1.02 ± 0.063.
In the case of AAAATACGTT, the switch fluorescence ratio worked out at 1.23 ± 0.16.
For the sequence TGAAAGTGCT, the switch fluorescence ratio amounted to 0.973 ± 0.02.
Next, AATGATGTAC: 1.05 ± 0.01; AGGGTAGTAG: 1.015 ± 0.0063; CCGGCGGATT: 1.08 ± 0.056.
Next, GGAAGGGGGT: 1.01 ± 0.12; GGAAGGGTAT: 1 ± 0.03; ATAGACAGAC: 1.136 ± 0.0095.
With TGAATGAATA the figure was 1.027 ± 0.0085.
As to CAGCGAGTGG, the switch fluorescence ratio is 1 ± 0.036.
Next, GCGTAAAGGG: 0.99 ± 0.043; TTGTTTTAC: 1.05 ± 0.067; TTCTCGTTGG: 1.02 ± 0.032.
With CATTGATGTG the figure was 1 ± 0.011; with ACAGTGTGGG, 1.05 ± 0.018.
Consider GGGGGTGTGA, for which the switch fluorescence ratio came to 1.02 ± 0.017.
With AGAGATTGCC the figure was 1.0678 ± 0.0008; with GTTTTAACAT, 0.9895 ± 0.0073; with ATCTGGGAGT, 1.014 ± 0.00032.
With GGTTTTGTTC the figure was 1.09 ± 0.11; with CTACGGGCTG, 0.9898 ± 0.0069.
Next, AGATAGGGGT: 1.021 ± 0.008; GAGTACGCTA: 3.07 ± 1.2.
As for CATTTGCGGA, the switch fluorescence ratio stood at 0.981 ± 0.055.
Next, GTCTAGGGGG: 1.05 ± 0.089.
On to GATAGTGTAG, for which the switch fluorescence ratio is 1.03 ± 0.0034.
With AGGTTTGCTC the figure was 1.01 ± 0.011; with AATCGAGGAG, 0.957 ± 0.053.
Turning to ATGTACATTT, the switch fluorescence ratio came out at 1.068 ± 0.0059.
With GGCGTATGTG the figure was 0.95983 ± 0.00095; with CAATCTGGGA, 0.978 ± 0.019; with CAAGCCGGGG, 0.979 ± 0.021.
With CAAGGATACA, the switch fluorescence ratio was found to be 1 ± 0.034.
Next, AGTTAAAATA: 1 ± 0.021; AGTTGGTCTC: 1.13 ± 0.12; TGCTAGAGCT: 0.997 ± 0.011.
With GTCGGGAGGC the figure was 1.02 ± 0.022; with AAACGTTAGA, 1.03 ± 0.0082; with TGAACGTTTT, 1.04 ± 0.029.
Next, ATCAGGGTAC: 1.05 ± 0.04; TTTGTAAAGG: 0.999 ± 0.013; TTTCAGTCAT: 0.978 ± 0.015.
Regarding TTGCTTTTTT, the switch fluorescence ratio stood at 0.992 ± 0.013.
As for GTTTCGCCGT, the switch fluorescence ratio was 1.046 ± 0.0054.
On to GTTATGTCTG, for which the switch fluorescence ratio came out at 1.03 ± 0.065.
Next, TTTGGGAATT: 1.03 ± 0.035; ATGAATGTAT: 0.9855 ± 0.0062.
